Measurements taken from patent US20240392020A1 (JIANGSU HENGRUI PHARMACEUTICALS, published 2024).
Numbering of substitutions follows the chain as printed. Values belong to the binder of their own block, whether it stands above or below them.

Columns and labels:
hIL-5 = target: T1, hIL-5 (human, UniProt P05113 20-134); assay: ELISA
T1 construct: bought
Protocol: (§1) For an antibody targeting a soluble protein, the binding activity of the antibody against the soluble protein was detected by ELISA. […] After the blocking was completed, the blocking solution was discarded; and the plate was washed 3 times with a PBST buffer (pH 7.4, PBS containing 0.1% tween-20). 100 μL of the antibody solution diluted in a gradient was added to each well, and the mixture was incubated at 37° C. for 1 h. After the incubation was completed, the plate was washed 3 times with PBST.

hTSLP = target: T2, hTSLP (human, UniProt Q969D9 29-159); assay: ELISA
T2 construct: bought
Protocol: as §1

CEA on MKN45 cells = target: T3, CEA on MKN45 cells (UniProt P06731 35-685); assay: FACS, MKN45 cells
T3 construct: whole, on cells
T3 sequence (looked up): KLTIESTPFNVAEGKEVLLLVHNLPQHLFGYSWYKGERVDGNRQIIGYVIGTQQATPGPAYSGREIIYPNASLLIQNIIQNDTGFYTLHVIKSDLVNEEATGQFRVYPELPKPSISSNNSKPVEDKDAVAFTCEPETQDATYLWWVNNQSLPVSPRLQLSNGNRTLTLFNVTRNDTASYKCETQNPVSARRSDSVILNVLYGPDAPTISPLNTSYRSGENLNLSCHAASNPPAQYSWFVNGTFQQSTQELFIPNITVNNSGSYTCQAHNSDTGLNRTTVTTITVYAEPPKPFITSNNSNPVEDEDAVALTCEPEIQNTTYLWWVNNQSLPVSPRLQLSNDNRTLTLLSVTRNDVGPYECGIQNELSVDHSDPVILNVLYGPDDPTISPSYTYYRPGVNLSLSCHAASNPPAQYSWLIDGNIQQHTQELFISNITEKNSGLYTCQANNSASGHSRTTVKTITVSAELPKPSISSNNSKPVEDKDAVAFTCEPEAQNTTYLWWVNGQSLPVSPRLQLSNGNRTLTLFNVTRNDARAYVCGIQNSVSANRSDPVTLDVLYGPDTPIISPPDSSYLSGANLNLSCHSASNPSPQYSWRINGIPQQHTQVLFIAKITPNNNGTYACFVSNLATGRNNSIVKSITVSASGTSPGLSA

hNGF = target: T4, hNGF (human, UniProt P01138 122-241, limits assumed); assay: ELISA
T4 construct: bought
Protocol: (§2) For an antibody targeting a soluble protein, the binding activity of the antibody against the soluble protein was detected by ELISA. […] After the blocking was completed, the blocking solution was discarded; and the plate was washed 3 times with a PBST buffer (pH 7.4, PBS containing 0.1% tween-20). 100 μL of the antibody solution diluted in a gradient was added to each well, and the mixture was incubated at 37° C. for 1 h. After the incubation was completed, the plate was washed 3 times with PBST. […] The plate was washed 3 times with PBST. […] The reaction was stopped by adding 50 μL of 1 M H₂SO₄ to each well. The absorbance values at 450 nm were read on a microplate reader, the binding curves of the antibodies to an antigen were fitted with software, and the EC₅₀ values were calculated.

hP40 = target: T5, hP40 (human, UniProt P29460 23-328); assay: ELISA
T5 construct: bought
T5 sequence (looked up): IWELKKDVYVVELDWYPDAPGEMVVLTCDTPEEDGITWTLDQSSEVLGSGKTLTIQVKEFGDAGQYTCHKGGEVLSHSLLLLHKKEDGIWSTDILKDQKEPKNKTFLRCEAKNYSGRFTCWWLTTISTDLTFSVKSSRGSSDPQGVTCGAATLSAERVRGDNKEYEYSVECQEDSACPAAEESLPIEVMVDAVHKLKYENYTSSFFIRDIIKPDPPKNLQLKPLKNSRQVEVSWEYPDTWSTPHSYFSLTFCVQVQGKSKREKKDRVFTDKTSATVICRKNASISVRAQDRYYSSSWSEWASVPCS
Protocol: as §2

T4 sequence (P01138 122-241 limits assumed): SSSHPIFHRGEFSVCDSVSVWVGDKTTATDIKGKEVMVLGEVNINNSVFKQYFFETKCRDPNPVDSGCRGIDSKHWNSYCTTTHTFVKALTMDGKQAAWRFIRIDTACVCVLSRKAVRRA

- EC50 (hIL-5): 17.4 nM
- EC50 (hTSLP): 3.23 nM
B1: HJ-3 (bispecific antibody, human IgG1, kappa, L234A L235A)
heavy 1: not shown
light 1: DIQMTQSPSSVSASVGDRVTITCRASQDIANYLSWYQQKPGKSPKLLIYGTSNLEVGVPSRFSGSRSGTDFTLTISSLQPEDFATYYCLQDKEFPRTFGGGTKVEIKGGGGSSGAPRFLTRPLAFVVSVGKDATLSSQIVGNPTPQVSWEKDKQPVTAGARFRLAQDGDLYRLKILDLQLSDSGQYVSRARNAIGEAFACLGLQVDAEA
heavy 2: EVQLVQSGAEVKKPGSSVKVSCKASGYTFSNYLIEWVRQAPGQGLEWIGVIDPGVGDTNYNENFKGRATLTADKSTSTAYIELSSLRSEDTAVYYCAREDNTGTAFDYWGQGTTVTVSSASTKGPSVFPLAPSSKSTSGGTAALGCLVKDYFPEPVTVSWNSGALTSGVHTFPAVLQSSGLYSLSSVVTVPSSSLGTQTYICNVNHKPSNTKVDKKVEPKSCDKTHTCPPCPAPEAAGGPSVFLFPPKPKDTLMISRTPEVTCVVVDVSHEDPEVKFNWYVDGVEVHNAKTKPREEQYNSTYRVVSVLTVLHQDWLNGKEYKCKVSNKALPAPIEKTISKAKGQPREPQVCTLPPSREEMTKNQVSLSCAVKGFYPSDIAVEWESNGQPENNYKTTPPVLDSDGSFFLVSKLTVDKSRWQQGNVFSCSVMHEALHNHYTQKSLSLSPGKDYKDDDDK
light 2: SIVMTQTPLSLSVTPGQPASISCKASQSVSSDVTWYLQKPGQSPQLLIYYVSEHYTGVPDRFSGSGYGTDFTLKISRVEAEDVGVYYCQQHHRFPLTFGQGTKLEIKRTVAAPSVFIFPPSDEQLKSGTASVVCLLNNFYPREAKVQWKVDNALQSGNSQESVTEQDSKDSTYSLSSTLTLSKADYEKHKVYACEVTHQGLSSPVTKSFNRGEC

- EC50 (hIL-5): 18.7 nM
- EC50 (hTSLP): 3.33 nM
B2: HJ-8 (bispecific antibody, human IgG1, kappa, L234A L235A)
heavy 1: not shown
light 1: B1 light 1 with G108R, G109T, G110V, G111A, L123K, F125S, T144F, A160V, I194H
heavy 2: EVQLVQSGAEVKKPGSSVKVSCKASGYTFSNYLIEWVRQAPGQGLEWIGVIDPGVGDTNYNENFKGRATLTADKSTSTAYIELSSLRSEDTAVYYCAREDNTGTAFDYWGQGTTVTVSSASTKGPSVFPLAPSSKSTSGGTAALGCLVKDYFPEPVTVSWNSGALTSGVHTFPAVLQSSGLYSLSSVVTVPSSSLGTQTYICNVNHKPSNTKVDKKVEPKSCDKTHTCPPCPAPEAAGGPSVFLFPPKPKDTLMISRTPEVTCVVVDVSHEDPEVKFNWYVDGVEVHNAKTKPREEQYNSTYRVVSVLTVLHQDWLNGKEYKCKVSNKALPAPIEKTISKAKGQPREPQVCTLPPSREEMTKNQVSLSCAVKGFYPSDIAVEWESNGQPENNYKTTPPVLDSDGSFFLVSKLTVDKSRWQQGNVFSCSVMHEALHNHYTQKSLSLSPGK
light 2: B1 light 2

- EC50 (hIL-5): 37 nM
- EC50 (hTSLP): 2.88 nM
B3: HJ-6 (bispecific antibody, human IgG1, kappa, L234A L235A)
heavy 1: not shown
light 1: B1 light 1 with R121C, L123K, F125S, T144F, A160V, I194H
heavy 2: B2 heavy 2
light 2: B1 light 2

- EC50 (hIL-5): 20.8 nM
- EC50 (hTSLP): 3.17 nM
B4: HJ-10 (bispecific antibody, human IgG1, kappa, L234A L235A)
heavy 1: not shown
light 1: DIQMTQSPSSVSASVGDRVTITCRASQDIANYLSWYQQKPGKSPKLLIYGTSNLEVGVPSRFSGSRSGTDFTLTISSLQPEDFATYYCLQDKEFPRTFGGGTKVEIKRTVASSGAPRFLTRPKASVVSVGKDATLSCQIVGNPFPQVSWEKDKQPVTAGVRFRLAQDGDLYRLKILDLQLSDSGQYVCRARNAHGEAFACLGLQVDAEA
heavy 2: B2 heavy 2
light 2: B1 light 2

- EC50 (hIL-5): 16 nM
- EC50 (hTSLP): 2.64 nM
B5: HJ-5 (bispecific antibody, human IgG1, kappa, L234A L235A)
heavy 1: not shown
light 1: B1 light 1 with L123K, F125S, T144F, A160V, I194H
heavy 2: B2 heavy 2
light 2: B1 light 2

- EC50 (hIL-5): 10.9 nM
- EC50 (hTSLP): 3.18 nM
B6: HJ-9 (bispecific antibody, human IgG1, kappa, L234A L235A)
heavy 1: not shown
light 1: B4 light 1 with R121C, C137S, C188S
heavy 2: B2 heavy 2
light 2: B1 light 2

- EC50 (hIL-5): 17.7 nM
- EC50 (hTSLP): 2.18 nM
B7: HJ-7 (bispecific antibody, human IgG1, kappa, L234A L235A)
heavy 1: not shown
light 1: B4 light 1 with R108G, T109G, V110G, A111G
heavy 2: B2 heavy 2
light 2: B1 light 2

- EC50 (hIL-5): 9.46 nM
- EC50 (hTSLP): 3 nM
B8: HJ-11 (bispecific antibody, human IgG1, kappa, L234A L235A)
heavy 1: not shown
light 1: B4 light 1 with A115C
heavy 2: B2 heavy 2
light 2: B1 light 2

- EC50 (CEA on MKN45 cells): 17.7 nM
B9: C1 (antibody)
heavy: not shown
light: DIVMTQSPDSLAVSLGERATINCRASESVSIIGTNLIHWYQQKPGQPPKLLIYHASNLETGVPDRFSGSGSGTDFTLTISSLQAEDVAVYYCLQSRKIPYTFGGGTKVEIKGIPPKIEALPSDISIDEGKVLTVACAFTGEPTPEVTWSCGGRKIHSQEQGRFHIENTDDLTTLIIMDVQKQDGGLYTLSLGNEFGSDSATVNIHIRSI

- EC50 (CEA on MKN45 cells): 16.5 nM
B10: C2 (antibody)
heavy: not shown
light: B9 light

- EC50 (CEA on MKN45 cells): 5.81 nM
B11: C0 (antibody, human IgG1, kappa)
heavy: not shown
light: DIVMTQSPDSLAVSLGERATINCRASESVSIIGTNLIHWYQQKPGQPPKLLIYHASNLETGVPDRFSGSGSGTDFTLTISSLQAEDVAVYYCLQSRKIPYTFGGGTKVEIKRTVAAPSVFIFPPSDEQLKSGTASVVCLLNNFYPREAKVQWKVDNALQSGNSQESVTEQDSKDSTYSLSSTLTLSKADYEKHKVYACEVTHQGLSSPVTKSFNRGEC

- EC50 (hNGF): 3.19 nM
B12: I2 (antibody)
heavy: not shown
light: DIQMTQSPSSLSASVGDRVTITCRASQSISNNLNWYQQKPGKAPKLLIYYTSRFHSGVPSRFSGSGSGTDFTFTISSLQPEDIATYYCQQEHTLPYTFGQGTKLEIKSGAPRFLTRPKSYTVSVGKDASLSSQIVGNPTPQVSWEKDQQPVAAGARFRLAQDGDLYRLKILDLALGDSGQYVSRARNAIGEAFACVGLQVDAEA

- EC50 (hNGF): 2.99 nM
B13: I3 (antibody)
heavy: not shown
light: B12 light with K118L, S119A, Y120F, T121V, S129T, Q148K, A152T, A174Q, G176S, V196L

- EC50 (hP40): 0.02 nM
B14: U3 (antibody)
heavy: not shown
light: DIQMTQSPSSLSASVGDRVTITCRASQGISSWLAWYQQKPEKAPKSLIYAASSLQSGVPSRFSGSGSGTDFTLTISSLQPEDFATYYCQQYNIYPYTFGQGTKLEIKSEAPRFLTRPLAFVVSEGKDATLSSQIVGDPPPEVTWEKDQQPITAGARFRLAQDGDVYRLEILDLQLSDSGQYVSRARNAIGEAFACVGLQVDAEG

- EC50 (hP40): 0.07 nM
B15: U7 (antibody)
heavy: not shown
light: DIQMTQSPSSLSASVGDRVTITCRASQGISSWLAWYQQKPEKAPKSLIYAASSLQSGVPSRFSGSGSGTDFTLTISSLQPEDFATYYCQQYNIYPYTFGQGTKLEIKSGAPRFLTRPLAFVVSVGKDATLSSQIVGNPTPQVSWEKDQLPVTAGARFRLAQDGDLYRLKILDLTLSDSGQYVSRARNAIGEAFACVGLEVGAEA

- EC50 (hP40): 0.06 nM
B16: U4 (antibody)
heavy: not shown
light: B15 light with Q148K, L149Q, T174Q, V196L, E199Q, G201D

- EC50 (hP40): 0.03 nM
B17: U1 (antibody)
heavy: not shown
light: B15 light with L149Q, T152A, T174A, S176G, E199Q, G201D

- EC50 (hP40): 0.11 nM
B18: U5 (antibody)
heavy: not shown
light: B15 light

- EC50 (hP40): 0.16 nM
B19: U8 (antibody)
heavy: not shown
light: B15 light with A119S, F120Y, T129S, T174Q

- EC50 (hP40): 0.11 nM
B20: U6 (antibody)
heavy: not shown
light: B15 light

- EC50 (hNGF): 4.12 nM
B21: I6 (antibody)
heavy: not shown
light: DIQMTQSPSSLSASVGDRVTITCRASQSISNNLNWYQQKPGKAPKLLIYYTSRFHSGVPSRFSGSGSGTDFTFTISSLQPEDIATYYCQQEHTLPYTFGQGTKLEIKSGAPRFLTRPLAFVVSVGKDATLSSQIVGNPTPQVSWEKDQLPVTAGARFRLAQDGDLYRLKILDLTLSDSGQYVSRARNAIGEAFACVGLEVGAEA

- EC50 (hNGF): 3.15 nM
B22: I7 (antibody)
heavy: not shown
light: B21 light with A119S, F120Y, T129S, T174Q

- EC50 (hNGF): 3.59 nM
B23: I5 (antibody)
heavy: not shown
light: B21 light

- EC50 (hNGF): 4.13 nM
B24: I4 (antibody)
heavy: not shown
light: B21 light

- EC50 (hP40): 0.07 nM
B25: U2 (antibody)
heavy: not shown
light: DIQMTQSPSSLSASVGDRVTITCRASQGISSWLAWYQQKPEKAPKSLIYAASSLQSGVPSRFSGSGSGTDFTLTISSLQPEDFATYYCQQYNIYPYTFGQGTKLEIKSGAPRFLTRPKSYTVSVGKDASLSSQIVGNPTPQVSWEKDQQPVAAGARFRLAQDGDLYRLKILDLALGDSGQYVSRARNAIGEAFACVGLQVDAEA
